According to paper PMC6220978, “Induced conformational changes activate the peptidoglycan synthase PBP1B” (Molecular Microbiology, 2018):
One block for each binder: values may come before it.

B3: CpoB^TPR (CpoB^139-263), C-terminal TetratricoPeptide Repeat domain of CpoB (domain or fragment, E. coli, UniProt P45955 139-263, looked up)
chain: SGNANTDYNAAIALVQDKSRQDDAMVAFQNFIKNYPDSTYLPNANYWLGQLNYNKGKKDDAAYYFASVVKNYPKSPKAADAMFKVGVIMQDKGDTAKAKAVYQQVISKYPGTDGAKQAQKRLNAM
notes: CpoB, E. coli, residues 139-263 (TPR domain), in pET28a with a thrombin cleavage site; In the PRE NMR one of the partners was 15N-labelled, the other spin labelled at random on lysines with OXYL-1-NHS; also called C-terminal TPR domain; source: E. coli BL21(DE3), purified (HisTrap, Superdex 200)

Assays:
Details in all cases: both partners purified
[1] = target: T1, PBP1B (wild type, PBP1B^46-844) (E. coli, UniProt P02919 46-844); experiment: SPR; PBP1B versions immobilised to the chip surface; CpoB versions injected from either 3.9 nM to 2 μM or from 78 nM to 40 μM; apparent KD by non-linear regression, at least three independent experiments
T1 construct: PBP1B, E. coli, residues 46-844, encoded on pDML924; Immobilised on the SPR chip as in Egan et al. 2014 / Gray et al. 2015; also called WT PBP1B; WT; source: E. coli BL21(DE3), purified (membrane extract, HisTrap, thrombin, HiTrap SP ion exchange)
T1 sequence (looked up): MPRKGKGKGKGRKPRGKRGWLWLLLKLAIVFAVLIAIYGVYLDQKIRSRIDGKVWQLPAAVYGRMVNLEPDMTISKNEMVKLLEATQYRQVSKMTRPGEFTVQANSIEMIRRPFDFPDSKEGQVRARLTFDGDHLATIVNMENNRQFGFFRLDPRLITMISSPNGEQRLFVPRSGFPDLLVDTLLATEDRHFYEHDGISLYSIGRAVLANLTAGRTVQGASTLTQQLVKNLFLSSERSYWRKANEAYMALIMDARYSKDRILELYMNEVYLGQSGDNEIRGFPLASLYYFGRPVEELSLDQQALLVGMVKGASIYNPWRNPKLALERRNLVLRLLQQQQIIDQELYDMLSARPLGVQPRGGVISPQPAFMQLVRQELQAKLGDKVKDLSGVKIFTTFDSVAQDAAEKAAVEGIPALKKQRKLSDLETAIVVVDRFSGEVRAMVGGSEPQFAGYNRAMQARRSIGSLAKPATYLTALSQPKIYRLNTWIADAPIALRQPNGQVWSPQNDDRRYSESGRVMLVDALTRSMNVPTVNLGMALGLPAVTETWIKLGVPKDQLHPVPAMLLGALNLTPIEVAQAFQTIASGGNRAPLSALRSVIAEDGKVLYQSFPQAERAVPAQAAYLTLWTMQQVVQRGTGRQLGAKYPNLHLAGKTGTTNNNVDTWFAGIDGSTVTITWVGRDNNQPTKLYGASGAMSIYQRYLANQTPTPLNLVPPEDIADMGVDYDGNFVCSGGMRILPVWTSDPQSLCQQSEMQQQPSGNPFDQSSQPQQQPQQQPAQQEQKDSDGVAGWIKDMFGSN

[2] = target: B3; experiment: paramagnetic relaxation enhancement (PRE) NMR; 100 µM 15N-labelled protein with the partner spin labelled at random on lysines, molar ratio 1:2, 2D HN-HSQC at 850 MHz, 20°C; intensity ratio before and after reduction with sodium ascorbate; done in both directions (15N-CpoB with spin labelled UB2H, 15N-UB2H with spin labelled CpoB)
[3] = target: T1, PBP1B (wild type, PBP1B^46-844); experiment: SPR; PBP1B versions immobilised to the chip surface; CpoB versions injected from either 3.9 nM to 2 μM or from 78 nM to 40 μM; apparent KD by non-linear regression, at least three independent experiments; remark: listed apart in the source

binding result [1]: binds
B1: CpoB^TPR+link (CpoB^110-263) (domain or fragment, E. coli, UniProt P45955 110-263, looked up)
chain: STSGDQSGAAASTTPTADAGTANAGAPVKSGNANTDYNAAIALVQDKSRQDDAMVAFQNFIKNYPDSTYLPNANYWLGQLNYNKGKKDDAAYYFASVVKNYPKSPKAADAMFKVGVIMQDKGDTAKAKAVYQQVISKYPGTDGAKQAQKRLNAM
notes: CpoB, E. coli, residues 110-263 (inter-domain linker and TPR domain), in pET28a with a thrombin cleavage site; also called CpoB^TPR version with this linker (res. 110–263); source: E. coli BL21(DE3), purified (HisTrap, Superdex 200)

binding result [2]: binds
B2: UB2H domain of PBP1B (PBP1B^108–200) (domain or fragment, E. coli, UniProt P02919 108-200, looked up)
chain: GRMVNLEPDMTISKNEMVKLLEATQYRQVSKMTRPGEFTVQANSIEMIRRPFDFPDSKEGQVRARLTFDGDHLATIVNMENNRQFGFFRLDPR
notes: PBP1B, E. coli, residues 108 to 200 (UB2H domain), in pET28a with a thrombin cleavage site; [13C,15N]- or 15N-labelled for NMR; in the reciprocal PRE experiment spin labelled at random on lysines with OXYL-1-NHS; source: E. coli BL21(DE3), isotopically labelled in M9 medium, purified (HisTrap, Superdex 200)

Binder: B3
Kd [3]: 4.9 µM
